Ends that are not written are not given here.
Target: humanized variant of IPN002 (hu-IPN002)
Experiment: competition ELISA; competitor: biotin-Tau 13-24 on hu-IPN002

B1: Peptide 1 (Tau amino acids 13-24) (peptide)
peptide: DHAGTYGLGDRK
modifications: also: biotinylated, position not given here, also used non-biotinylated
  IC50 (read off the curve): 400 nM
